Measured values as given in paper PMC10570040.
Where a chain is given by its changes, count along the chain named.

T1: EnfR T55I (Thermococcus onnurineus NA1, UniProt B6YTS4 1-146, T55I)
T1 sequence: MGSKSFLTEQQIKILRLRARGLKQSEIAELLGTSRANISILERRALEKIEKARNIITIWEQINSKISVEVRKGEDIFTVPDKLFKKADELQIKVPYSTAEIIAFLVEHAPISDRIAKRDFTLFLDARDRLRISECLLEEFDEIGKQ

T2: EnfR wild-type (TON_1525) (Thermococcus onnurineus NA1, UniProt B6YTS4 1-146)
T2 sequence: T1 sequence with I55T

T3: EnfR R44A (Thermococcus onnurineus NA1, UniProt B6YTS4 1-146, R44A)
T3 sequence: T1 sequence with R44A, I55T

B1: 36-bp target, unlabelled (ITC) (dsDNA)
DNA 1: CCATCTTAAAATCTTTTTGTTTACATTATACGAGGT
DNA 2: ACCTCGTATAATGTAAACAAAAAGATTTTAAGATGG
B2: 36-bp target, Cy5 (dsDNA)
DNA 1: B1 DNA 1
DNA 2: B1 DNA 2

What was measured:
EnfR T55I = biological target: T1, EnfR T55I; test: ITC; 25 C; N = 0.80; EMSA: 10 mM Tris pH 7.4, 200 mM KCl, 2 mM DTT, 0.2 mM EDTA, 37 C 20 min; ITC: 10 mM Tris-HCl pH 7.4, 200 mM KCl, 1 mM TCEP, 0.2 mM EDTA, 25 C; footprint: 20 mM; settings: protein: recombinant; tags: C-terminal His6, non-cleavable; chain copies: 2; blunt
[1] = biological target: T2, EnfR wild-type (TON_1525); test: ITC; 25 C; N = 0.94; EMSA: 10 mM Tris pH 7.4, 200 mM KCl, 2 mM DTT, 0.2 mM EDTA, 37 C 20 min; ITC: 10 mM Tris-HCl pH 7.4, 200 mM KCl, 1 mM TCEP, 0.2 mM EDTA, 25 C; footprint: 20 mM; settings: protein: recombinant; tags: C-terminal His6, non-cleavable; chain copies: 2; blunt
EnfR R44A = biological target: T3, EnfR R44A; test: EMSA; seemed to lose binding; EMSA: 10 mM Tris pH 7.4, 200 mM KCl, 2 mM DTT, 0.2 mM EDTA, 37 C 20 min; ITC: 10 mM Tris-HCl pH 7.4, 200 mM KCl, 1 mM TCEP, 0.2 mM EDTA, 25 C; footprint: 20 mM; settings: protein: recombinant; tags: C-terminal His6, non-cleavable; chain copies: 2; label: 5'-Cy5; blunt

Row | Binder | Kd (EnfR T55I) [nM] | Kd [1] [nM] | binding result (EnfR R44A)
1 | B1 | 948 ± 130 | 61.8 ± 20.5 | –
2 | B2 | – | – | no binding
